Laboratory results as given in patent US20190218532.

Target: SpCas9::KQ (nuclease-deficient) KQ insertion (Streptococcus pyogenes) (UniProt Q99ZW2)
Assay: cell_activity
Conditions: PAM TGG; half the fraction of GFP-positive cells of SpCas9

Sequence of UniProt Q99ZW2 (Q99ZW2 whole entry): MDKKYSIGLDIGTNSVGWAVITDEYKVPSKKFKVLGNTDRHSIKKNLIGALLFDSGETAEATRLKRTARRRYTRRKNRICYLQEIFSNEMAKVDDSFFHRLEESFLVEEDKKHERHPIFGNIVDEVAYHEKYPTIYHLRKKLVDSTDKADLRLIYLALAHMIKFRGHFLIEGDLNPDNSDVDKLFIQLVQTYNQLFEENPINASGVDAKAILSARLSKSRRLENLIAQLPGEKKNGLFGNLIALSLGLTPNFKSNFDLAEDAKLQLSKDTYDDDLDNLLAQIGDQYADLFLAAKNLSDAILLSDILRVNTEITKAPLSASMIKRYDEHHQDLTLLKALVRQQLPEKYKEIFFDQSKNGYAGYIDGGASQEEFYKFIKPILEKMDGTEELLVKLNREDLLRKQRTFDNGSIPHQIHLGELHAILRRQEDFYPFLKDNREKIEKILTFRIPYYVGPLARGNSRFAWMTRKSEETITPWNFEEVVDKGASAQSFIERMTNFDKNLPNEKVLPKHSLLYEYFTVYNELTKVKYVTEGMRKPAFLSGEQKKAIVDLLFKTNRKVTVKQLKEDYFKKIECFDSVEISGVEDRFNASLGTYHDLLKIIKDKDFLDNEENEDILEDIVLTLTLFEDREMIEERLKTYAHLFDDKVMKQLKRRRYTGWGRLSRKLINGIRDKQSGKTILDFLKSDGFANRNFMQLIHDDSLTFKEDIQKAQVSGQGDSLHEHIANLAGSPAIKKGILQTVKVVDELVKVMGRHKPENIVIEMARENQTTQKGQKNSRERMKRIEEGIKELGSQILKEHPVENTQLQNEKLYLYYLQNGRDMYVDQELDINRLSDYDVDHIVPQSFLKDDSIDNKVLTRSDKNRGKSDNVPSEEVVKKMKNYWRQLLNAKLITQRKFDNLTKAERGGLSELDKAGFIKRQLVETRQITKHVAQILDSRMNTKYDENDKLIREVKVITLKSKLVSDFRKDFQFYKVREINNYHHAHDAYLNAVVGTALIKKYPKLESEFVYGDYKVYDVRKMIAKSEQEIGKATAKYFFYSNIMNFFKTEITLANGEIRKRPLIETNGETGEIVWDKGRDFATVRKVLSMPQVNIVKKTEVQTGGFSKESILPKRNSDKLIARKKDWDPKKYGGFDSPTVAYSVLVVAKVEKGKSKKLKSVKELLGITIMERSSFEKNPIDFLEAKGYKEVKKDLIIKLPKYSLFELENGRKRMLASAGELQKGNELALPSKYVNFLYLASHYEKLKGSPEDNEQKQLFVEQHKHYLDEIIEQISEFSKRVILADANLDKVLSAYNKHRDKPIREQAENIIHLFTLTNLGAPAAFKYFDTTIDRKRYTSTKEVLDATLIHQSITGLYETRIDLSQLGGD

With “CGAAAGGUUUUGCACUCGAC / CGAAAGGTTTTGCACTCGACTGG / CCAGTCGAGTGCAAAACCTTTCG” as the sequence, how does the binding signal (fraction of SpCas9 GFP-positive cells) read?
Its binding signal (fraction of SpCas9 GFP-positive cells) is 0.5.
